Reference: patent US20210032299A1 (Eli Lilly, published 2021)
Starred links: 1 amine or outer side, 2 acyl side, 3 side chain; linkers in the order of their positions; H or OH if unused. Non-standard residues stand in square brackets, D forms with d. Groups on a side chain read outwards from the residue. No end group written: not given here. *: point of attachment. C20 diacid = O=C(O)CCCCCCCCCCCCCCCCCCC(=O)*; γGlu = O=C(O)[C@H](CCC(=O)[*:2])N[*:1]; αMeY = C[C@](N)(Cc1ccc(O)cc1)C(=O)O; 4Pal = N[C@@H](Cc1ccncc1)C(=O)O; αMeL = CC(C)C[C@](C)(N)C(=O)O; AEEA = NCCOCCOCC(=O)O; Aib = CC(C)(N)C(=O)O

T1: human glucose-dependent insulinotropic peptide receptor (human, UniProt P48546 22-466)
T1 sequence (looked up): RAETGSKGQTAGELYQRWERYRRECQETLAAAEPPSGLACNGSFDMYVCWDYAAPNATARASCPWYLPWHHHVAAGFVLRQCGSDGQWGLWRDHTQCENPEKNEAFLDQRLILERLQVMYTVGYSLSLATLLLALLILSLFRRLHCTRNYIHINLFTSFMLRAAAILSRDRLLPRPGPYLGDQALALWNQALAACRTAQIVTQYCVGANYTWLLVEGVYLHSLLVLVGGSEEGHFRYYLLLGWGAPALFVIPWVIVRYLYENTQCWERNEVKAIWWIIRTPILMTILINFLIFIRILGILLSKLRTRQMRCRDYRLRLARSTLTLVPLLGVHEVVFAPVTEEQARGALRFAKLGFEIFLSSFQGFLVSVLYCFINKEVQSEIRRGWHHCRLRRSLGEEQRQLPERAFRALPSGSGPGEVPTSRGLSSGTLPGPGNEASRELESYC


Columns and labels:
Experiment in all cases: cell-based or functional assay
human GLP-1 receptor = human GLP-1 receptor (human, UniProt P43220 24-463)
[1] = target: T1, human glucose-dependent insulinotropic …
human glucagon receptor = human glucagon receptor (human, UniProt P47871 26-477)
human glucagon receptor, sequence (P47871 26-477): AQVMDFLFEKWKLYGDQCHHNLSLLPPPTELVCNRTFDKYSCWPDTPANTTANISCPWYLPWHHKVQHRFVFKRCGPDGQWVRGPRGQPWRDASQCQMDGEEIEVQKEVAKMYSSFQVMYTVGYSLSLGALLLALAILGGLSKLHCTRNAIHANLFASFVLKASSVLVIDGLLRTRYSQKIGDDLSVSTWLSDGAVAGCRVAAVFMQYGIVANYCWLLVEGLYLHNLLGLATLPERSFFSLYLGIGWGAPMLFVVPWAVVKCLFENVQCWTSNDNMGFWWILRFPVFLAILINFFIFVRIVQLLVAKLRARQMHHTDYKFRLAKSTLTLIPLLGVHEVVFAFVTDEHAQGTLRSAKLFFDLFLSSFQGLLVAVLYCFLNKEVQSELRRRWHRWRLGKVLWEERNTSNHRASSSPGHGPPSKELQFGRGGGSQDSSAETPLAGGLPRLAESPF

Binder | hGLP1R cAMP Rel EC50 (human GLP-1 receptor) | hGIPR cAMP Rel EC50 [1] | hGcgR cAMP Rel EC50 (human glucagon receptor)
Y[Aib]EGTFISDYSI[αMeL]LDKK([AEEA-AEEA-γGlu-C20 diacid])HQ[Aib]DFVE[αMeY]LLEAGPSSGAPPPS-NH2 (N-terminus assumed; SMILES CC[C@H](C)[C@H](NC(=O)[C@H](Cc1ccccc1)NC(=O)[C@@H](NC(=O)CNC(=O)[C@H](CCC(=O)O)NC(=O)C(C)(C)NC(=O)[C@@H](N)Cc1ccc(O)cc1)[C@@H](C)O)C(=O)N[C@@H](CO)C(=O)N[C@@H](CC(=O)O)C(=O)N[C@@H](Cc1ccc(O)cc1)C(=O)N[C@@H](CO)C(=O)N[C@H](C(=O)N[C@@](C)(CC(C)C)C(=O)N[C@@H](CC(C)C)C(=O)N[C@@H](CC(=O)O)C(=O)N[C@@H](CCCCN)C(=O)N[C@@H](CCCCNC(=O)COCCOCCNC(=O)COCCOCCNC(=O)CC[C@H](NC(=O)CCCCCCCCCCCCCCCCCCC(=O)O)C(=O)O)C(=O)N[C@@H](Cc1c[nH]cn1)C(=O)N[C@@H](CCC(N)=O)C(=O)NC(C)(C)C(=O)N[C@@H](CC(=O)O)C(=O)N[C@@H](Cc1ccccc1)C(=O)N[C@H](C(=O)N[C@@H](CCC(=O)O)C(=O)N[C@@](C)(Cc1ccc(O)cc1)C(=O)N[C@@H](CC(C)C)C(=O)N[C@@H](CC(C)C)C(=O)N[C@@H](CCC(=O)O)C(=O)N[C@@H](C)C(=O)NCC(=O)N1CCC[C@H]1C(=O)N[C@@H](CO)C(=O)N[C@@H](CO)C(=O)NCC(=O)N[C@@H](C)C(=O)N1CCC[C@H]1C(=O)N1CCC[C@H]1C(=O)N1CCC[C@H]1C(=O)N[C@@H](CO)C(N)=O)C(C)C)[C@@H](C)CC) [Example 90] | > 5000 nM | 0.0272 nM | > 5000 nM
Y[Aib]EGTFISDYSI[αMeL]LDEK([AEEA-AEEA-γGlu-C20 diacid])HQ[Aib]DFVE[4Pal]LLAGGPSSGAPPPS-NH2 (N-terminus assumed; SMILES CC[C@H](C)[C@H](NC(=O)[C@H](Cc1ccccc1)NC(=O)[C@@H](NC(=O)CNC(=O)[C@H](CCC(=O)O)NC(=O)C(C)(C)NC(=O)[C@@H](N)Cc1ccc(O)cc1)[C@@H](C)O)C(=O)N[C@@H](CO)C(=O)N[C@@H](CC(=O)O)C(=O)N[C@@H](Cc1ccc(O)cc1)C(=O)N[C@@H](CO)C(=O)N[C@H](C(=O)N[C@@](C)(CC(C)C)C(=O)N[C@@H](CC(C)C)C(=O)N[C@@H](CC(=O)O)C(=O)N[C@@H](CCC(=O)O)C(=O)N[C@@H](CCCCNC(=O)COCCOCCNC(=O)COCCOCCNC(=O)CC[C@H](NC(=O)CCCCCCCCCCCCCCCCCCC(=O)O)C(=O)O)C(=O)N[C@@H](Cc1c[nH]cn1)C(=O)N[C@@H](CCC(N)=O)C(=O)NC(C)(C)C(=O)N[C@@H](CC(=O)O)C(=O)N[C@@H](Cc1ccccc1)C(=O)N[C@H](C(=O)N[C@@H](CCC(=O)O)C(=O)N[C@@H](Cc1ccncc1)C(=O)N[C@@H](CC(C)C)C(=O)N[C@@H](CC(C)C)C(=O)N[C@@H](C)C(=O)NCC(=O)NCC(=O)N1CCC[C@H]1C(=O)N[C@@H](CO)C(=O)N[C@@H](CO)C(=O)NCC(=O)N[C@@H](C)C(=O)N1CCC[C@H]1C(=O)N1CCC[C@H]1C(=O)N1CCC[C@H]1C(=O)N[C@@H](CO)C(N)=O)C(C)C)[C@@H](C)CC) [Example 86] | > 5000 nM | 0.03 nM | > 5000 nM
Y[Aib]EGTLISDYSI[αMeL]LDKK([AEEA-AEEA-γGlu-C20 diacid])HQ[Aib]DFVE[4Pal]LLEAGPSSGAPPPS-NH2 (N-terminus assumed; SMILES CC[C@H](C)[C@H](NC(=O)[C@H](CC(C)C)NC(=O)[C@@H](NC(=O)CNC(=O)[C@H](CCC(=O)O)NC(=O)C(C)(C)NC(=O)[C@@H](N)Cc1ccc(O)cc1)[C@@H](C)O)C(=O)N[C@@H](CO)C(=O)N[C@@H](CC(=O)O)C(=O)N[C@@H](Cc1ccc(O)cc1)C(=O)N[C@@H](CO)C(=O)N[C@H](C(=O)N[C@@](C)(CC(C)C)C(=O)N[C@@H](CC(C)C)C(=O)N[C@@H](CC(=O)O)C(=O)N[C@@H](CCCCN)C(=O)N[C@@H](CCCCNC(=O)COCCOCCNC(=O)COCCOCCNC(=O)CC[C@H](NC(=O)CCCCCCCCCCCCCCCCCCC(=O)O)C(=O)O)C(=O)N[C@@H](Cc1c[nH]cn1)C(=O)N[C@@H](CCC(N)=O)C(=O)NC(C)(C)C(=O)N[C@@H](CC(=O)O)C(=O)N[C@@H](Cc1ccccc1)C(=O)N[C@H](C(=O)N[C@@H](CCC(=O)O)C(=O)N[C@@H](Cc1ccncc1)C(=O)N[C@@H](CC(C)C)C(=O)N[C@@H](CC(C)C)C(=O)N[C@@H](CCC(=O)O)C(=O)N[C@@H](C)C(=O)NCC(=O)N1CCC[C@H]1C(=O)N[C@@H](CO)C(=O)N[C@@H](CO)C(=O)NCC(=O)N[C@@H](C)C(=O)N1CCC[C@H]1C(=O)N1CCC[C@H]1C(=O)N1CCC[C@H]1C(=O)N[C@@H](CO)C(N)=O)C(C)C)[C@@H](C)CC) [Example 89] | > 5000 nM | 0.00687 nM | > 5000 nM
Y[Aib]EGTFISDYSI[αMeL]LDKIHQ[Aib]DFVEYK([AEEA-AEEA-γGlu-C20 diacid])LEQGPSSGAPPPS-NH2 (N-terminus assumed; SMILES CC[C@H](C)[C@H](NC(=O)[C@H](CCCCN)NC(=O)[C@H](CC(=O)O)NC(=O)[C@H](CC(C)C)NC(=O)[C@](C)(CC(C)C)NC(=O)[C@@H](NC(=O)[C@H](CO)NC(=O)[C@H](Cc1ccc(O)cc1)NC(=O)[C@H](CC(=O)O)NC(=O)[C@H](CO)NC(=O)[C@@H](NC(=O)[C@H](Cc1ccccc1)NC(=O)[C@@H](NC(=O)CNC(=O)[C@H](CCC(=O)O)NC(=O)C(C)(C)NC(=O)[C@@H](N)Cc1ccc(O)cc1)[C@@H](C)O)[C@@H](C)CC)[C@@H](C)CC)C(=O)N[C@@H](Cc1c[nH]cn1)C(=O)N[C@@H](CCC(N)=O)C(=O)NC(C)(C)C(=O)N[C@@H](CC(=O)O)C(=O)N[C@@H](Cc1ccccc1)C(=O)N[C@H](C(=O)N[C@@H](CCC(=O)O)C(=O)N[C@@H](Cc1ccc(O)cc1)C(=O)N[C@@H](CCCCNC(=O)COCCOCCNC(=O)COCCOCCNC(=O)CC[C@H](NC(=O)CCCCCCCCCCCCCCCCCCC(=O)O)C(=O)O)C(=O)N[C@@H](CC(C)C)C(=O)N[C@@H](CCC(=O)O)C(=O)N[C@@H](CCC(N)=O)C(=O)NCC(=O)N1CCC[C@H]1C(=O)N[C@@H](CO)C(=O)N[C@@H](CO)C(=O)NCC(=O)N[C@@H](C)C(=O)N1CCC[C@H]1C(=O)N1CCC[C@H]1C(=O)N1CCC[C@H]1C(=O)N[C@@H](CO)C(N)=O)C(C)C) [Example 92] | > 5000 nM | 0.0191 nM | > 5000 nM
Y[Aib]EGTFISDYSI[αMeL]LDKK([AEEA-AEEA-γGlu-C20 diacid])HQ[Aib]DFVE[αMeY]LLEGGPSSGAPPPS-NH2 (N-terminus assumed; SMILES CC[C@H](C)[C@H](NC(=O)[C@H](Cc1ccccc1)NC(=O)[C@@H](NC(=O)CNC(=O)[C@H](CCC(=O)O)NC(=O)C(C)(C)NC(=O)[C@@H](N)Cc1ccc(O)cc1)[C@@H](C)O)C(=O)N[C@@H](CO)C(=O)N[C@@H](CC(=O)O)C(=O)N[C@@H](Cc1ccc(O)cc1)C(=O)N[C@@H](CO)C(=O)N[C@H](C(=O)N[C@@](C)(CC(C)C)C(=O)N[C@@H](CC(C)C)C(=O)N[C@@H](CC(=O)O)C(=O)N[C@@H](CCCCN)C(=O)N[C@@H](CCCCNC(=O)COCCOCCNC(=O)COCCOCCNC(=O)CC[C@H](NC(=O)CCCCCCCCCCCCCCCCCCC(=O)O)C(=O)O)C(=O)N[C@@H](Cc1c[nH]cn1)C(=O)N[C@@H](CCC(N)=O)C(=O)NC(C)(C)C(=O)N[C@@H](CC(=O)O)C(=O)N[C@@H](Cc1ccccc1)C(=O)N[C@H](C(=O)N[C@@H](CCC(=O)O)C(=O)N[C@@](C)(Cc1ccc(O)cc1)C(=O)N[C@@H](CC(C)C)C(=O)N[C@@H](CC(C)C)C(=O)N[C@@H](CCC(=O)O)C(=O)NCC(=O)NCC(=O)N1CCC[C@H]1C(=O)N[C@@H](CO)C(=O)N[C@@H](CO)C(=O)NCC(=O)N[C@@H](C)C(=O)N1CCC[C@H]1C(=O)N1CCC[C@H]1C(=O)N1CCC[C@H]1C(=O)N[C@@H](CO)C(N)=O)C(C)C)[C@@H](C)CC) [Example 91] | 530 nM | 0.0321 nM | 289 nM
YXEGTXISDYSIXLDKKHQXDFVEXLLEAGPSSGAPPPS (Aib2; Iva6; αMeL13; K17((2-[2-(2-Amino-ethoxy)-ethoxy]-acetyl)2-(γ-Glu)-CO-(CH2)18-CO2H); Aib20; 4-Pal25; C-terminal amide) [Example 88] | > 5000 nM | 0.0031 nM | 1670 nM
